Measurements as given in article PMC5207070, “The Amino-terminal Domain of the Androgen Receptor Co-opts Extracellular Signal-regulated Kinase (ERK) Docking Sites in ELK1 Protein to Induce Sustained Gene Activation That Supports Prostate Cancer Cell Growth*^([image sbox.jpg])” (The Journal of Biological Chemistry, 2016).

Biological target: T1, purified full-length human AR (Abcam ab82609) (human, UniProt P10275 1-920)
T1 construct: androgen receptor, human, full length; also called Purified AR; AR polypeptide (ligand)
T1 sequence (looked up): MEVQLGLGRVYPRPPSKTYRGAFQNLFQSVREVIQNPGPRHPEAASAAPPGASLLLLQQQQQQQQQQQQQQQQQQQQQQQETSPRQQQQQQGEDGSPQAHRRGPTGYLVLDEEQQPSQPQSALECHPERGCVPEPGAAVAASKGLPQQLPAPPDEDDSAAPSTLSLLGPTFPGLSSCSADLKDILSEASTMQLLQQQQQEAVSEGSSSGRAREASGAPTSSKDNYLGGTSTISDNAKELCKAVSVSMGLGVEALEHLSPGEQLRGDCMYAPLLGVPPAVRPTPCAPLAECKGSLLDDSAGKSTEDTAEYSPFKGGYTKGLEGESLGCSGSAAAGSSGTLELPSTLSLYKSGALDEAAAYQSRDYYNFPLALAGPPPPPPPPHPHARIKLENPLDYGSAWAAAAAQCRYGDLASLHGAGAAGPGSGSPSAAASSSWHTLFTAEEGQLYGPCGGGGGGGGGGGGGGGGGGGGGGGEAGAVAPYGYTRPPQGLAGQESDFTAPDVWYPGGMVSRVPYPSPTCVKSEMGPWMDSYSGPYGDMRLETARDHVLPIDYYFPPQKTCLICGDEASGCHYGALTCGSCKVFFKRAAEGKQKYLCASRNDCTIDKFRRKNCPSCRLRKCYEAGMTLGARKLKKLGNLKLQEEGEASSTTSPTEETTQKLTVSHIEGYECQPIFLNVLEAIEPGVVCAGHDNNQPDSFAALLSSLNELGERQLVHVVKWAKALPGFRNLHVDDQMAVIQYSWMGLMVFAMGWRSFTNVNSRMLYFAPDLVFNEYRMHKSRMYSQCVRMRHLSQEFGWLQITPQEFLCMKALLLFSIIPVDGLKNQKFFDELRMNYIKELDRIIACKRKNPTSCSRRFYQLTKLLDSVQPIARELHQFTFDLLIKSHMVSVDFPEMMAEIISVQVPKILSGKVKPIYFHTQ
Assay: SPR; BIAcore 3000; AR immobilised on a CM5 chip by amine coupling; His-ELK1 (0-160 nM) or mutant ELK1 (100 nM) as analyte; HBS-N buffer; 1:1 Langmuir model; Kd = koff/kon
Details: both partners purified

B1: His-tagged ELK1 (natural protein, human, UniProt P19419 1-428, looked up)
chain: MDPSVTLWQFLLQLLREQGNGHIISWTSRDGGEFKLVDAEEVARLWGLRKNKTNMNYDKLSRALRYYYDKNIIRKVSGQKFVYKFVSYPEVAGCSTEDCPPQPEVSVTSTMPNVAPAAIHAAPGDTVSGKPGTPKGAGMAGPGGLARSSRNEYMRSGLYSTFTIQSLQPQPPPHPRPAVVLPSAAPAGAAAPPSGSRSTSPSPLEACLEAEEAGLPLQVILTPPEAPNLKSEELNVEPGLGRALPPEVKVEGPKEELEVAGERGFVPETTKAEPEVPPQEGVPARLPAVVMDTAGQAGGHAASSPEISQPQKGRKPRDLELPLSPSLLGGPGPERTPGSGSGSGLQAPGPALTPSLLPTHTLTPVLLTPSSLPPSIHFWSTLSPIAPRSPAKLSFQFPSSGSAQVHIPSISVDGLSTPVVLSPGPQKP
notes: ELK1, recombinant; Construct details are in the supplemental material; also called purified ELK1
Kd: 19 nM
